Measurements reported in IntAct's records for PubMed 31515488.

B1: Protein sprouty homolog 1 (Homo sapiens), O43609 (parent)
chain: MDPQNQHGSGSSLVVIQQPSLDSRQRLDYEREIQPTAILSLDQIKAIRGSNEYTEGPSVVKRPAPRTAPRQEKHERTHEIIPINVNNNYEHRHTSHLGHAVLPSNARGPILSRSTSTGSAASSGSNSSASSEQGLLGRSPPTRPVPGHRSERAIRTQPKQLIVDDLKGSLKEDLTQHKFICEQCGKCKCGECTAPRTLPSCLACNRQCLCSAESMVEYGTCMCLVKGIFYHCSNDDEGDSYSDNPCSCSQSHCCSRYLCMGAMSLFLPCLLCYPPAKGCLKLCRRCYDWIHRPGCRCKNSNTVYCKLESCPSRGQGKPS
partner: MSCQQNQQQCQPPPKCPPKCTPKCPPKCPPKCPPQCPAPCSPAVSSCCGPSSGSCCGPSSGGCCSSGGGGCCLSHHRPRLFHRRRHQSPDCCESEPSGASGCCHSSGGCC
B2: Tuftelin-interacting protein 11 (Homo sapiens), Q9UBB9 (parent)
chain: MSLSHLYRDGEGRIDDDDDERENFEITDWDLQNEFNPNRQRHWQTKEEATYGVWAERDSDDERPSFGGKRARDYSAPVNFISAGLKKGAAEEAELEDSDDEEKPVKQDDFPKDFGPRKLKTGGNFKPSQKGFAGGTKSFMDFGSWERHTKGIGQKLLQKMGYVPGRGLGKNAQGIINPIEAKQRKGKGAVGAYGSERTTQSMQDFPVVDSEEEAEEEFQKELSQWRKDPSGSKKKPKYSYKTVEELKAKGRISKKLTAPQKELSQVKVIDMTGREQKVYYSYSQISHKHNVPDDGLPLQSQQLPQSGKEAKAPGFALPELEHNLQLLIDLTEQEIIQNDRQLQYERDMVVNLFHELEKMTEVLDHEERVISNLSKVLEMVEECERRMQPDCSNPLTLDECARIFETLQDKYYEEYRMSDRVDLAVAIVYPLMKEYFKEWDPLKDCTYGTEIISKWKSLLENDQLLSHGGQDLSADAFHRLIWEVWMPFVRNIVTQWQPRNCDPMVDFLDSWVHIIPVWILDNILDQLIFPKLQKEVENWNPLTDTVPIHSWIHPWLPLMQARLEPLYSPIRSKLSSALQKWHPSDSSAKLILQPWKDVFTPGSWEAFMVKNIVPKLGMCLGELVINPHQQHMDAFYWVIDWEGMISVSSLVGLLEKHFFPKWLQVLCSWLSNSPNYEEITKWYLGWKSMFSDQVLAHPSVKDKFNEALDIMNRAVSSNVGAYMQPGARENIAYLTHTERRKDFQYEAMQERREAENMAQRGIGVAASSVPMNFKDLIETKAEEHNIVFMPVIGKRHEGKQLYTFGRIVIYIDRGVVFVQGEKTWVPTSLQSLIDMAK
partner: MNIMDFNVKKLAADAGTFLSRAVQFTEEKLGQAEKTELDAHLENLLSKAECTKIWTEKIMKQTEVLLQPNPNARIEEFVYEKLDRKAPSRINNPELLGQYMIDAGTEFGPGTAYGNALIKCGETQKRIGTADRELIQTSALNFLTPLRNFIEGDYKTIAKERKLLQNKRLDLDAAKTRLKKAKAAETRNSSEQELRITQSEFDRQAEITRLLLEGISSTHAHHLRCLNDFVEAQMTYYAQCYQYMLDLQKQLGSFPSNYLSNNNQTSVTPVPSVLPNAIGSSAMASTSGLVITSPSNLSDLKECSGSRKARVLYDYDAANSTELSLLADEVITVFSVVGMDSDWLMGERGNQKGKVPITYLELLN
B3: Notch homolog 2 N-terminal-like protein A (Homo sapiens), Q7Z3S9 (parent)
chain: MCVTYHNGTGYCKCPEGFLGEYCQHRDPCEKNRCQNGGTCVAQAMLGKATCRCASGFTGEDCQYSTSHPCFVSRPCLNGGTCHMLSRDTYECTCQVGFTGKECQWTDACLSHPCANGSTCTTVANQFSCKCLTGFTGQKCETDVNECDIPGHCQHGGTCLNLPGSYQCQCLQGFTGQYCDSLYVPCAPSPCVNGGTCRQTGDFTFECNCLPETVRRGTELWERDREVWNGKEHDEN
partner: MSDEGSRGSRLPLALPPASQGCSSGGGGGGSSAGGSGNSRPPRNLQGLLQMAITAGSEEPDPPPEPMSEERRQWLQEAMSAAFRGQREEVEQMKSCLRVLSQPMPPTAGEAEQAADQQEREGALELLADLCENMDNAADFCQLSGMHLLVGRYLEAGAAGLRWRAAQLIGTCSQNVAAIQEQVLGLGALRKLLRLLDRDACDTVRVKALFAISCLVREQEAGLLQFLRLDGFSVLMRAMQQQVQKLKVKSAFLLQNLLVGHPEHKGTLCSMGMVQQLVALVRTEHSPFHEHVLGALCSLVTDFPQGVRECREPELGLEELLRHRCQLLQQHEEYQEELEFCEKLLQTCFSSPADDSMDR
B4: Spermatogenesis-associated protein 2 (Homo sapiens), Q9UM82 (parent)
chain: MGKPSSMDTKFKDDLFRKYVQFHESKVDTTTSRQRPGSDECLRVAASTLLSLHKVDPFYRFRLIQFYEVVESSLRSLSSSSLRALHGAFSMLETVGINLFLYPWKKEFRSIKTYTGPFVYYVKSTLLEEDIRAILSCMGYTPELGTAYKLRELVETLQVKMVSFELFLAKVECEQMLEIHSQVKDKGYSELDIVSERKSSAEDVRGCSDALRRRAEGREHLTASMSRVALQKSASERAAKDYYKPRVTKPSRSVDAYDSYWESRKPPLKASLSLRKEPVATDVGDDLKDEIIRPSPSLLTMASSPHGSPDVLPPASPSNGPALLRGTYFSTQDDVDLYTDSEPRATYRRQDALRPDVWLLRNDAHSLYHKRSPPAKESALSKCQSCGLSCSSSLCQRCDSLLTCPPASKPSAFPSKASTHDSLAHGASLREKYPGQTQGLDRLPHLHSKSKPSTTPTSRCGFCNRPGATNTCTQCSKVSCDACLSAYHYDPCYKKSELHKFMPNNQLNYKSTQLSHLVYR
partner: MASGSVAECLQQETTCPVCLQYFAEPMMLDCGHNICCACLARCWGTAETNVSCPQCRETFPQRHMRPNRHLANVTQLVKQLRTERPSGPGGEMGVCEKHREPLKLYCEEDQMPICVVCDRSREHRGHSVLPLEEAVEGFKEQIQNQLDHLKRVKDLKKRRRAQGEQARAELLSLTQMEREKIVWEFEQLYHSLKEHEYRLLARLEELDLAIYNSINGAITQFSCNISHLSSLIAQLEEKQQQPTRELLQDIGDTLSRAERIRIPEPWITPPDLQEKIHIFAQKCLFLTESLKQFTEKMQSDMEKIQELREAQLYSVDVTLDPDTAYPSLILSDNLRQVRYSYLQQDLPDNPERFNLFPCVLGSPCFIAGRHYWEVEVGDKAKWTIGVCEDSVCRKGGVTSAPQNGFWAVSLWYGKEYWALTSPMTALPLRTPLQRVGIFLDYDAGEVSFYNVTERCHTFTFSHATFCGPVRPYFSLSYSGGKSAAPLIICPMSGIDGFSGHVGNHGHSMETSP
B5: Syntenin-2 (Homo sapiens), Q9H190 (parent)
chain: MSSLYPSLEDLKVDQAIQAQVRASPKMPALPVQATAISPPPVLYPNLAELENYMGLSLSSQEVQESLLQIPEGDSTAVSGPGPGQMVAPVTGYSLGVRRAEIKPGVREIHLCKDERGKTGLRLRKVDQGLFVQLVQANTPASLVGLRFGDQLLQIDGRDCAGWSSHKAHQVVKKASGDKIVVVVRDRPFQRTVTMHKDSMGHVGFVIKKGKIVSLVKGSSAARNGLLTNHYVCEVDGQNVIGLKDKKIMEILATAGNVVTLTIIPSVIYEHMVKKLPPVLLHHTMDHSIPDA
partner: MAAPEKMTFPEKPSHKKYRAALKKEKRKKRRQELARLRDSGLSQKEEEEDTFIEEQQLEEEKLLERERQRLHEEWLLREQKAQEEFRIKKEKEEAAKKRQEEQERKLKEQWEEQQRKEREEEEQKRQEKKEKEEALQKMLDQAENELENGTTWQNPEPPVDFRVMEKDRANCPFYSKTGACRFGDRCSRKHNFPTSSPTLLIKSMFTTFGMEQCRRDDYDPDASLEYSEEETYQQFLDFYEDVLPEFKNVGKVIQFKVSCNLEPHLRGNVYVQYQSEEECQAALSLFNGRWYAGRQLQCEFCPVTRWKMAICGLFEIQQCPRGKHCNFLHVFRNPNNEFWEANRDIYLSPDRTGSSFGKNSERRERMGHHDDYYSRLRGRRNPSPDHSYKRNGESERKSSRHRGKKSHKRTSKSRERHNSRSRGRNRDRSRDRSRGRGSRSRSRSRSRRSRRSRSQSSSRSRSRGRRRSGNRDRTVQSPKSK
B6: Calcium-binding and coiled-coil domain-containing protein 2 (Homo sapiens), Q13137 (parent)
chain: MEETIKDPPTSAVLLDHCHFSQVIFNSVEKFYIPGGDVTCHYTFTQHFIPRRKDWIGIFRVGWKTTREYYTFMWVTLPIDLNNKSAKQQEVQFKAYYLPKDDEYYQFCYVDEDGVVRGASIPFQFRPENEEDILVVTTQGEVEEIEQHNKELCKENQELKDSCISLQKQNSDMQAELQKKQEELETLQSINKKLELKVKEQKDYWETELLQLKEQNQKMSSENEKMGIRVDQLQAQLSTQEKEMEKLVQGDQDKTEQLEQLKKENDHLFLSLTEQRKDQKKLEQTVEQMKQNETTAMKKQQELMDENFDLSKRLSENEIICNALQRQKERLEGENDLLKRENSRLLSYMGLDFNSLPYQVPTSDEGGARQNPGLAYGNPYSGIQESSSPSPLSIKKCPICKADDICDHTLEQQQMQPLCFNCPICDKIFPATEKQIFEDHVFCHSL
partner: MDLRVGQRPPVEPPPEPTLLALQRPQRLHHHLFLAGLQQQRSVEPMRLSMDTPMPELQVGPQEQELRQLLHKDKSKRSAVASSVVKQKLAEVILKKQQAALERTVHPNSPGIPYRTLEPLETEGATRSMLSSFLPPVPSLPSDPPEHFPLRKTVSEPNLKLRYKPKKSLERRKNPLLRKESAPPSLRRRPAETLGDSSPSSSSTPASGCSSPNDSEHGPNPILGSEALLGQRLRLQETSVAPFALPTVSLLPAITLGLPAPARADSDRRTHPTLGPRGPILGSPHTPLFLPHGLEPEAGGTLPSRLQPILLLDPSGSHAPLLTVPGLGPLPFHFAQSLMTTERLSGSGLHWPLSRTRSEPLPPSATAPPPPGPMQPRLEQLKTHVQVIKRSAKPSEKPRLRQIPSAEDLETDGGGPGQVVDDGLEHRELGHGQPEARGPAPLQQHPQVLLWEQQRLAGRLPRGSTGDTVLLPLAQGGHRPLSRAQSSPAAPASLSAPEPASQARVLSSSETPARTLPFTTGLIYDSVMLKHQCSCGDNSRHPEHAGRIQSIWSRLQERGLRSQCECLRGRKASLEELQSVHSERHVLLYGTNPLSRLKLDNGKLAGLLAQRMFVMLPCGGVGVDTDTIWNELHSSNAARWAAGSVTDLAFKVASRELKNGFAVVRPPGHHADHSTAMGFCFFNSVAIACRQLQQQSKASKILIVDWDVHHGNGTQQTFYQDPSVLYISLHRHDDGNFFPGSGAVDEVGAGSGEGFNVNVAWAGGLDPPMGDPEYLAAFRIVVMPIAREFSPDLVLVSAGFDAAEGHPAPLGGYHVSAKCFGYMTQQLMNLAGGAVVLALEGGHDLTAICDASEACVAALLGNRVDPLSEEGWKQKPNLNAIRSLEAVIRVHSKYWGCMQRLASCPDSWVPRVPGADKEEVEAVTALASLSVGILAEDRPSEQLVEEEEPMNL

Variants of: B1
Details: with lce2d_human LCE2D

Variant | effect of a mutation on the interaction
R24H | with no effect
A37T | with no effect

Variants of: B2
Details: with shlb1_human SH3GLB1, Q9Y371

Variant | effect of a mutation on the interaction
S688L | with no effect
R8Q | with no effect

Variants of: B3
Details: with hpbp1_human HSPBP1, Q9NZL4

Variant | effect of a mutation on the interaction
R74Q | with no effect
A115T | with no effect

Variants of: B4
Details: with tri27_human TRIM27, P14373

Variant | effect of a mutation on the interaction
L443F | disrupting interaction strength

Variants of: B5
Details: with ZRSR2, Q15696

Variant | effect of a mutation on the interaction
G225R | disrupting interaction strength
V182M | with no effect
G242R | disrupting interaction strength

Variants of: B6
Details: with hdac7_human HDAC7, Q8WUI4

Variant | effect of a mutation on the interaction
P389A | with no effect
